Earlier results in patent US20110171162A1, “POLYMER CONJUGATES OF THYMOSIN ALPHA 1 PEPTIDES” (NEKTAR THERAPEUTICS, priority 2008, published 2011).

Details: in human plasma

thymosin alpha 1: Twenty-eight amino acid peptide, SEQ ID NO: 1 (SDAAVDTSSEITTKDLKEKKEVVEEAEN); sold as ZADAXIN thymosin alpha 1, injection (thymalfasin) (listed as Homo sapiens)
half-life: approximately two
